Target: the molecule itself
Assay: native gel or EMSA

B1: GST-LARP6 fusion protein (La ribonucleoprotein domain family, member 6) (natural protein, human, UniProt Q9BRS8 1-491, looked up)
chain: MAQSGGEARPGPKTAVQIRVAIQEAEDVDELEDEEEGAETRGAGDPARYLSPGWGSASEEEPSRGHSGTTASGGENEREDLEQEWKPPDEELIKKLVDQIEFYFSDENLEKDAFLLKHVRRNKLGYVSVKLLTSFKKVKHLTRDWRTTAHALKYSVVLELNEDHRKVRRTTPVPLFPNENLPSKMLLVYDLYLSPKLWALATPQKNGRVQEKVMEHLLKLFGTFGVISSVRILKPGRELPPDIRRISSRYSQVGTQECAIVEFEEVEAAIKAHEFMITESQGKENMKAVLIGMKPPKKKPAKDKNHDEEPTASIHLNKSLNKRVEELQYMGDESSANSSSDPESNPTSPMAGRRHAATNKLSPSGHQNLFLSPNASPCTSPWSSPLAQRKGVSRKSPLAEEGRLNCSTSPEIFRKCMDYSSDSSVTPSGSPWVRRRRQAEMGTQEKSPGTSPLLSRKMQTADGLPVGVLRLPRGPDNTRGFHGHERSRACV
  binding result: binds

Source: paper PMC2826804 (Journal of molecular biology, 2009)
